This note sets out measurements from a protein production outcome set (Wang et al. 2014).

The nature of this series: label from the status in PepcDB records.
As to “MNKLSIIITYFNNEDYISECIHSLKSQRNQDFDIIVVDDGSTDRSTEILQEALKSYDKDVHFIQLQENTGHAHARNVALEQAHGQYVLFLDADDQLASYAVDYYLQHVNGLDTLIAPIHKFRSQRPQYVDKDKVRLQYASHQKSPNAILRKESACNILFKNAIIKAHQIQFNESLDIYADTSFVLEYLKYAERFVRITNFPFYYRGEVYDPFYGNTLSDQDFTNKFEDHVNSFFDAMQRTNDKRIKNFLIQRMKNEIKSGFDPALRDIKSRYVSLEDALIKIVKALKWNILKDGKVLYNLEILFLSMDDVENAKYVNDLRNKTRLVKNIVLNSKMKERSKYQLSDNEDLVDPNTIVFEAFGGKNYSDSPKYIYEYMQKHYPHLNYIWVFSKPENNNIPGNATKVKKGSQAYYDAYAKAKYWVTNARLPLYLNKKENQMYIQTWHGTPLKRLANDMKVVRMPGTTTANYKKNFYAEASRWDRLVSPNRYSSDIFKSAFWMDEDRIWEIGYPRNDVLVNRQNDTEYIEQIKRDLNLPADKKVIMYAPTWRDDEFVKKGQYLFDLKINLANLQKEIGDEYVILLRMHYLIANALDLHGYDDFAIDVSNYNDISELYLISDALVTDYSSVMFDFGILKRPQFFFAYDIEKYDKGLRGFYMDYMNDLPGEIITDEFKLAEELKQIDQHKVKYQDKIESFYNDFCSIENGKASQYIGDYIYKDIEKKS”, the protein production result is given as “failed”. On to “MTIAEIRKFAQTTQKFVEAENLFEHGNVVLPKKYLNKARGMAEVLYNSQVIKVSFTAKDGELTCKCSCLANVDNCVHIVAVLLKYHQMLVESKRSFNLAEAFHLDCDQAEMLIENLSLEIIAGGNFKLGFTINLDKHNPQPSVLRFYCCDATFVYFLHLENDTLHSVELSKFKPEERATLLFFDKLCKQFTVGYDRNSLLFPLAGFLKELQANTEPTIFVFNDDKIDNILFLRISKKHHGLNHVCGFSGKKVFDFVTYKQKEKQIVLRSAYLSKFTDFKFPYTINIYKLQFGEPLFFYFLIQLKRDGFKNFYFQSEDSIVKEKEYLPKLYFKVEYDPVKNKFVSDAFFKYKNHFNKGTTTVYPHRYYMAKKSDRGGFNRLLFYEEAVENFYQDQFDLGYFRKFEHLPIQDKNQIEAFKAALDDLMPVDLAEVSLSDNLLHQKPLHFALSDLEAVAVDDKQIKLSFAPSAVELKLIKRILSAYHKGNVVCIDQESWYDLKQPAAKELIQFNQFDLRNATSDGNHIYLPKYYLFEVAKIFSQYLDIKNLFDVPTIKKIEDQNNNVFDLSLEHKKITSLRNYQQEGVKIRGLEENKFGGILADEMGLGKTVQVIFALLDSYLKNHVNLPSLIIVPASLLLNKSEFEKFAPQIKVKVANIPSKERGELYEKLTNEILIVSFNVLRSDVKLITKQRFHYVVIDEAQGIKNDSSSITKAAKKVKGNFCLALTGTPIENRLLDLSCFDFVLPSFLGNKKQFTDQFEKEKTDQSFHLLMQRTSPFILRRTKSKVLKELPNKITTDIYVELNPMHQKLYEEERDRGLEEIKQIQDKSSFNILTLILKLRHLCSLPKNSQGILENSAKKEAALEIIHEAIENQRKIILFTQFIDVIDHFKDTFKEQGIEYFIFDGRKSPKSRHSIIEKFNNAKNPCVLLASLKAGGVGINLTAAEVVIHFDVWNTAVENQATDRAHRIGQKKTVQVYRIIAKNTIEERVCQVQAEKQELVSKTLVEDVNFFESLTNEELLRLFE”, for which the protein production result is reported as “failed”.

Turning to “MTENTNFKSGYSEVNGLKMYYEIHGEGKPLVLIHGGGSTIKTSFGNILPLLLKSRQIIVMELQAHGHTGDRETDLTFEQDADDVAKLLENLQITKADFLGFSNGGHTTIEIALRHKKIVDKILLASAFYKRDAVVPEFWDGFDSATLEMMPKVLQEGYLKANDDEKGLLNMFKKDVQKMKDFKGWTDEQMKSITAKTLIINGNNDVGSIEHAVEMYRILPNCELAILPGGHGTYLGAIESLPNGEWTMKYVAELIEEFFDKH”, the protein production entry is recorded as “failed”. As to “MAEIQFSKGVAETVVPEVRLSKSKNGQSGMAKFYFLEPTILAKESTDDITGMYLIDDEGEIITREVKGKFINGRPTAIEATVILNSQPEWDRFMRFMERYGAENGLGFSKSELEHHHHHH”, the protein production entry is reported as “not failed”. To “MHATDQTFQILLSQLLEKVEDRCPECGSEQYVWQQKNKDGTERCAPTCWSCGYKMLKKHEQQANQQRSQESFMARTQKFFHQGSLIADDALRQCRLTNYQTTELETRQAKERALAAVSAIVEGKPIHVIFSGKPGVGKSHLAISILVEVLERSAYQKYCLFVSYSELLEKLKMSMNESAKSQAKAQAYITRMKKADVLVLDDLGAELGIKNKVSTDFNNDILNRILEARQNKATIFTTNFSGKQLVEAYGTRIISRLMKHANGYVFQYKDTTDKRMRSVKLEHHHHHH” belongs “failed”. Consider “MSLGQTTLACSFRSLTNPYYTAFNKGAQSFAKSVGLPYVPLTTEGSSEKGIADIRALLQKTGGNLVLNVDPNDSADARVIVEACSKAGAYVTTIWNKPKDLHPWDYNPNYVAHLSYDGVAYGEETATQLFKSMGGKGGVVALGGIFSNVPAIERKAGLDAALKKFPGIQLLDFQVADWNSQKAFPIMQAWMTRFNSKIKGVWAANDDMALGAIEALRAEGLAGQIPVTGMDGTQPGLVAIKSGELVASVDWDPFWLGGIGLSMGLQAKEKKIDLATLPKDRRESFCTATFVTKTNVQDVIARAASPKAEWNNLYARVAGPVVYREGHHHHHH”, for which the protein production result was “not failed”. “MDPLKRVENELKKCVKCGACRAHCPAFATFGKEPAVARGKVALAQHLLKGDIELDDATYAAMSKCLLCGSCVEKCPNDVPTDEIVVVAREALSGQRGLTTFHAAVGRVIRNRSLMKFGAAAARILGPLFFRKVPETSGLRLRFPLPFLGGKRHIPSIAKKPFLDRHPEVIPGEPGKPRIVYFVGCMTNFCYPQVGEAALALFRHLGCTVIIPKNQQCCGLPGMSGGDLDTVRGLAEKNLAELERYEADYIMTACATCGGALHKFYPNLVGKRHPELAARLKAIAEKTVDAAQLLQKLGLNPEETGAGSDIRVTYHDPCHLRTRAITRQPRELLQGTPGVELAEMEGADKCCGLGGTFNVYHYESSLAINKMKSAAIINTGADAVVTGCPGCMMQLSDGLKQQRNRTRVLHTLEILARSIRP”: the protein production result is reported as “failed”.

In the case of “MDVEDYITLFLSLWIIASALAVKSVDVFLTLTLIGLLITLEVGGLFLSKEQKENLQPLIEILLLVFAVIVVKKVYEVLSG”, the protein production result is “failed”.

In the case of “MSTSAIDPVSFSLYAKDFTRFAQELGASFERYGFAVLSDYDLDQARIDAAVDSAKAFFALPVETKKQYAGVKGGARGYIPFGVETAKGADHYDLKEFWHMGRDLPPGHRFRAHMADNVWPAEIPAFKHDVSWLYNSLDGMGGKVLEAIATYLKLERDFFKPTVQDGNSVLRLLHYPPIPKDATGVRAGAHGDINTITLLLGAEEGGLEVLDRDGQWLPINPPPGCLVINIGDMLERLTNNVLPSTVHRVVNPPPERRGVPRYSTPFFLHFASDYEIKTLQNCVTAENPDRYPESITADEFLQQRLREIKLA”, the protein production result is “not failed”. The same measure for “MPQRNDRSRSTPTTSPKNNSWFRMQAGHQSDADIYIYDEIGFWGVTAKQFISDLNALGDITHINLNINSPGGDVFEGIAIFNALKTHGASITVYVDGVAASMASVIAMVGKPVIMPENSFMMIHKPFGFTGGDAEDMRTYADLLDKVEAVLLPAYAQKTGKTTDEIAAMLADETWMSGAECLAHGFADQVTPAVKAMACIQSKRTEEFKKMPESIRNMITPPRNSAPRVQDDGPAASRTPVQAAAPVVDENSIRAQVLAEQKARVNGINDLFAMFGGRYQTLQAQCLADPECSLEQAREKLLNEMGRESTPSNKNTPXHIYAGNGNFVGDGIRQALMARAGFEKTERDNVYNGMTLREYARMSLTERGIGVSSYNPMQMVGAAFTHSTSDFGNILLDVANKAILQGWEDAPETYEQWTRKGQLSDFKIAHRVGMGGFSALRQVREGAEYKYVTTGDKQATIALATYGELFSITRQAIINDDLNMLTDVPMKLGRAAKSTIADLVYAILTSNPKISTDNVSLFDKAKHANVLESAAMDVASLDKARQLMRVQKEGERHLNIRPAFVLVPTAMESVANQVIRSSSVKGADINAGIINPVKDFATVIAEPRLDDNSQTTFYLAASKGSDTIEVAYLNGVDTPYIDQMEGFSVDGVTTKVRIDAGVAPVDHRGLVKCTA”: “failed”.

“MRRQPSLTLRSTLAFALVAMLTVSGAGLYLYQSIEQTVLQRSDHAVLARLDHFRKLLRYDLTMDNLKGSPQLFENMLDSEEDIFIIGEPGKPPVVSVNPQHAPLPDLPTVAQDQPLRVDDLRSGMSLQGVPLRAAAAQVMSNGVEVRLQAAHLMVKEMAMLASFRQSIYIAVALAFLITAVLGYVLLRRGLRPLRKMAAHAAAITPASLHKRLDSHDTPVELQQLSNAFNAMLDRIDDGYRRLMQFSADLAHEIRTPVGSLMGHCQVALRQDRSVDEYQALLASNLEELERISRLVESILFLARADEAQAALERQPLDLHDELQRVAGYFEGLADERNLKLSPSGRGTLLADPILLRRALSNLVANAIRYADEDSEILIRVVTVDQQWRIEVENQGPVLPHATLARLFDRFYRGDASRHERSDSNGLGLAIVTAIMHLHGGCVEVAQPAVGRICFSLVFPAA”: the protein production result is reported as “failed”.

For “MRILFVGPPLYGLLYPVLSLAQAFRVNGHEVLIASGGKFAQKAAEAGLVVFDAAPGFDSEAGYRRQEALRKENNIGTKMGNFSFFSEEMTDPLVAFAGQWRPDLIVYPPLGVVGPLIAAKYDIPVVMQTVGFGHTPWHIKGVTKSLSNAYRRHGVSAPPRDLAWIDVTPPSMSILQNDGEPVISMQYVPYNGGAVWEEWWERTPDRKRLLVSLGTVKPMVDGLDLISWVMDSAGEVDAEIILHLPANARSDLRSLPPNVRLVDWLPMGVFLNGADGFIHHGGAGNTLTALHAGIPQIVFGQGADRPVNARAVVERGCGIIPGKSGLTSSMINTFLGNRALREASQEVAAEMAAQPCPTEVAKKLIAMLQHGLEHHHHHH”, the protein production result is given as “failed”.

For “MSLEPSQIMPLSVLIAEDNDICRLVAAKALEKCTNDITVVTNGLQALQAYQNRQFDVIIMDIQMPVMDGLEAVSEIRNYERTHNTKRASIIAITADTIDDDRPGAELDEYVSKPLNPNQLRDVVLTCHSEGAEGHHHHHH”, the protein production entry is “not failed”. Turning to “MSQANANFLDNSKVSANKTAESGQLKEFRTPPHNLAIEQAVLAALMTVAESFEQVNDLLKENDFYATRHKYIFRAIEKLAQENSPYDAVLVNDWLLKQNLLDAIGGEEYLMQLMADSPSSFYNLETYASKIKEFSTLRSMIKVSSDILQNAYDTKGRPVSEILDLAETSIFSLAEQHNNNKKDAGPKSISSVTADVISKLDELSKLDGNITGLTTGFLELDNKTYGMQSGDMIIVAARPSMGKTTFAMNLVESVLFNCNLPALVFSMEMPADSIAMRLISSYGKVHQGHLRSGKLDGDEWSKVTGTILQLQEKHLYIDDSSALPPTELRARARRIAKQHGGKLGCIMIDYLQLMKVPGMGDNRVGEIGEISRSLKALAKEMDCPVIALSQLNRSLENRPNKRPVMSDLRESGAIEQDADLIMFIYRDEVYNKESKEAGTAEIIIGKQRNGPIGTVRLAFEGQYTRFSNLSPEYYSQYDDEE”, the protein production result is “failed”. As for “KKKSIPQPTNALKSFNWSKLPENKLEGTVWTEIDDTKVFKILDLEDLERTFSAYQRQQDFFVNSNSKQKEADAIDDTLSSKLKVKELSVIDGRRAQNCNILLSRLKLSNDEIKRAILTMDEQEDLPKDMLEQLLKFVPEKSDIDLLEEHKHELDRMAKADRFLFEMSRINHYQQRLQSLYFKKKFAERVAEVKPKVEAIRSGSEEVFRSGALKQLLEVVLAFGNYMNKGQRGNAYGFKISSLNKIADTKSSIDKNITLLHYLITIVENKYPSVLNLNEELRDIPQAAKVN”, the protein production entry is “failed”. Regarding “GTIGPVADAEPHAAALGEAFQLTNFLRDVGEDLDRGRVYLPADELAAFGVDTELLAHSRRSGTTDQRIVRALAHLISVTRSVYRDAEPGIAMLDRRVQPGIRTAFVLYSRILDEIERGGYRVLDRRATVSRRNRWATALPQFARLAV”, the protein production entry is recorded as “failed”. To “MYCRMEFNFFMNDVVQMARKEMVESGYDQLTTPEEVDEVLKEKGTVLVMVNSVCGCAGGIARPAAAYMKNYDKKPDRFVTVFAGQDKEATARAREYFKGYAPSSPSFALLKDGEIQMMVERHEIEGHEPIQVVQKLEKAFDQYCS” belongs “failed”.
